Key:
[1] = target: Smc5/6 holocomplex (budding yeast) (UniProt Q12749); assay: single-molecule dual-colour Qdot co-detection (TIRF, DNA curtains); as a1, but buffer exchanged to 250 mM NaCl: Smc5/6 diffusing freely on double-tethered dsDNA (after equilibration on DNA); cluster size by statistical inference, assuming no unlabelled complexes (lower limit)
[2] = target: Smc5/6 holocomplex (budding yeast) (UniProt Q12749); assay: single-molecule dual-colour Qdot co-detection (TIRF, DNA curtains); Smc5/6 labelled with equal amounts of Qdot605 and Qdot705 anti-HA on the same epitope in 50 mM NaCl-Buffer R; puncta counted as they first appear on double-tethered dsDNA curtains (oligomers in solution), and binding at sites of previously bound Smc5/6; cluster size by statistical inference, assuming no unlabelled complexes (lower limit)
Smc5/6 holocomplex [3] = target: T1, Smc5/6 holocomplex (Saccharomyces cerevisiae (W303 …, UniProt Q08204;Q12749;Q07913;P38632;Q05541;P43124;Q03718;P40026 …)); assay: single-molecule capture on DNA curtain (TIRF); Smc5/6 preloaded on lambda dsDNA; 16 nM oligo; 1 mM ATP; mean about 4.0 oligos per punctum; Buffer R (composition not in material); dsDNA binding in 25 mM NaCl + 25 mM KCl, capture in 50 mM NaCl + 1 mM ATP; other steps 50-250 mM NaCl; pH and temperature not given in material; settings: protein: recombinant; tags: Smc6-3xStrepII; Nse4-His-3HA (Qdot anti-HA label); copies: 1;1;1;1;1;1;1;1; label: Alexa594; single stranded
Smc5/6 holocomplex [4] = target: T1, Smc5/6 holocomplex; assay: single-molecule capture on DNA curtain (TIRF); Smc5/6 preloaded on lambda dsDNA; 1 mM ATP; mean about 3.2 per punctum; Buffer R (composition not in material); dsDNA binding in 25 mM NaCl + 25 mM KCl, capture in 50 mM NaCl + 1 mM ATP; other steps 50-250 mM NaCl; pH and temperature not given in material; settings: protein: recombinant; tags: Smc6-3xStrepII; Nse4-His-3HA (Qdot anti-HA label); copies: 1;1;1;1;1;1;1;1; label: Alexa594; 3' overhang 9 nt on strand 2

With “Smc5/6 holocomplex (from UniProt Q12749 1-1114; Q08204 1-1093; Q07913 1-336; P38632 1-267; Q05541 1-303; P43124 1-402; Q03718 1-556)” the N, mean cluster size with a truncated Poissonian model (Smc5/6 per punctum) [1] was 3 to 4, the fraction of puncta with both colours [1] was 67% and the stoichiometry N (Smc5/6 per punctum) [1] was 2 to 3. For the same molecule, the N, mean cluster size with a truncated Poissonian model (Smc5/6 per punctum) [2] was 2 to 3, the fraction of binding events from solution with both colours [2] was 39% and the fraction of complexes that oligomerized on DNA (bound to previously bound Smc5/6) [2] was 10%. The stoichiometry N (Smc5/6 complexes per punctum) [2] was 2.

B1: capture01 ssDNA-Alexa594 (ssDNA)
DNA: ATATATCTGACGCGTGCCTGGAGACTGGGGAGTAATCCTCTTGGCGGTTAAA
modifications: Alexa594 between ...GCGGTT and AAA
B1: binds (Smc5/6 holocomplex [3]).

B2: capture01/capture02 dsDNA-Alexa594 (dsDNA)
DNA 1: ATATATCTGACGCGTGCCTGGAGACTGGGGAGTAATCCTCTTGGCGGTTAAA
DNA 2: TTTAACCGCCAAGAGGATTACTCCCCAGTCTCCAGGCACGCGTCAGATATATACATCCTGT
modifications: Alexa594 between ...GCGGTT and AAA of strand 1
B2: binds (Smc5/6 holocomplex [4]).
